Assay results as given in paper PMC3120933 (Journal of the American Chemical Society, 2011).

T1: cav(1-104), truncated caveolin-1 with intramembrane and C-terminal domains deleted (human, UniProt Q03135 1-104)
T1 sequence (looked up): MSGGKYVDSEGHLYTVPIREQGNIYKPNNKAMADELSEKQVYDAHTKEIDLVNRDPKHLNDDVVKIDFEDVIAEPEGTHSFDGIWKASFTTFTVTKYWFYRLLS


Biological target: T1, cav(1-104), truncated caveolin-1 with …
Assay: ITC

| Binder | dH1 (first binding site) | dH2 (second binding site) |
| --- | --- | --- |
| YTSLIHSLIEESQNQQEKHEKEIIDIERWASMLQLF (designed binder) [caveolin ligand 5 fused to MBP] | -26.1 kcal/mol | 83.9 kcal/mol |
| YTSLIHSLIEESQNQQEKQEKELMELERWGSMLKCF (designed binder) [caveolin ligand 4 fused to MBP] | -20.6 kcal/mol | 44.8 kcal/mol |
